Results taken from the supplement of paper PMC10126150.
± gives the standard deviation of the averaged measurements.

What follows are sequences tested on ATP (assay: switch fluorescence ratio, 500 uM ATP over buffer (Cy3 cluster intensity, sum of 5 cycles each) (fold (ratio)); higher = stronger signal-on switching upon ATP binding; sequences stand for … in TCGTCGGCAGCGTCAGATGTGTATAAGAGACAGTTTTTTTTTTTTTTTTTTTTTTTTT…TC). Details: aptamer strand: ATP DNA aptamer (quencher-CACCTGGGGGAGTATTGCGGAGGAAGG + anchor), 100 nM annealed; ATP concentration: 500 uM.
Summary of the method: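 After annealing to 100 nM quencher-labelled ATP aptamer, Cy3-labelled switching-strand clusters on a modified Illumina MiSeq flow-cell were imaged in selection buffer. A second image followed after 15 min with 500 uM ATP at 22 °C, and five such buffer/ATP cycles were done, each separated by NaOH stripping and re-annealing. The fluorescence ratio, averaged per switch-domain sequence, is summed target-cycle over summed buffer-cycle Cy3 intensity per cluster, with clusters outside 100-1000 RFU excluded.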
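Further: ATP exposure 15 min at 22 °C before imaging.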

| Sequence | switch fluorescence ratio |
| --- | --- |
| GGTTGTTGAG | 0.987 ± 0.052 |
| GGTTGTTTGG | 0.989 ± 0.02 |
| GGTTGTTTGT | 0.995 ± 0.015 |
| GGTTTAAAGT | 1.01 ± 0.014 |
| GGTTTAAGCA | 0.982 ± 0.034 |
| GGTTTACGGT | 1.007 ± 0.0018 |
| GGTTTAGATA | 0.987 ± 0.031 |
| GGTTTAGCGG | 0.9809 ± 0.0033 |
| GGTTTAGGCC | 0.991 ± 0.03 |
| GGTTTATGGA | 1.03 ± 0.024 |
| GGTTTATGGT | 0.967 ± 0.019 |
| GGTTTCAGGG | 0.986 ± 0.013 |
| GGTTTCCAAT | 1 ± 0.02 |
| GGTTTCCGGC | 1.008 ± 0.0087 |
| GGTTTCCGT | 0.987 ± 0.038 |
| GGTTTCGATG | 1 ± 0.023 |
| GGTTTCGCCG | 0.985 ± 0.052 |
| GGTTTCGGTT | 1.5 ± 0.86 |
| GGTTTCTAGA | 0.984 ± 0.024 |
| GGTTTCTGGG | 0.963 ± 0.017 |
| GGTTTGAAGC | 0.9642 ± 0.008 |
| GGTTTGAGGG | 0.985 ± 0.028 |
| GGTTTGATAT | 0.972 ± 0.013 |
| GGTTTGCAAG | 0.986 ± 0.018 |
| GGTTTGCTGT | 0.99034 ± 0.00027 |

| Sequence | switch fluorescence ratio |
| --- | --- |
| GGTTTGTTGT | 0.972 ± 0.022 |
| GGTTTTAACA | 1 ± 0.051 |
| GGTTTTACTC | 1.0379 ± 0.0006 |
| GGTTTTAGGA | 0.987 ± 0.025 |
| GGTTTTGCAC | 1.03 ± 0.038 |
| GGTTTTGGCT | 0.991 ± 0.01 |
| GGTTTTGGGT | 0.978 ± 0.026 |
| GGTTTTGGTT | 0.986 ± 0.025 |
| GGTTTTGTCA | 1.01 ± 0.019 |
| GGTTTTTATG | 1.004 ± 0.009 |
| GGTTTTTGGC | 1.02 ± 0.048 |
| GGTTTTTTAA | 0.995 ± 0.011 |
| GGTTTTTTTT | 0.992 ± 0.03 |
| GTAAACGGGT | 0.963 ± 0.016 |
| GTAACAGGCG | 0.905 ± 0.021 |
| GTAACCAAGA | 1.02 ± 0.0035 |
| GTAACTAATG | 1.02 ± 0.02 |
| GTAACTCGAA | 0.98231 ± 0.00092 |
| GTAAGAAAGA | 1.02 ± 0.015 |
| GTAAGAGGAA | 1.01 ± 0.044 |
| GTAAGGAAAT | 1.013 ± 0.0024 |
| GTAAGGGGCG | 1.02 ± 0.035 |
| GTAAGTCCGA | 0.98 ± 0.0033 |
| GTAATAACGG | 1.034 ± 0.0033 |
| GTAATAAGGG | 1.04 ± 0.041 |

| Sequence | switch fluorescence ratio |
| --- | --- |
| GTAATAGGGT | 1.01 ± 0.033 |
| GTAATGATTG | 0.989 ± 0.014 |
| GTAATGCTCA | 1.36 ± 0.062 |
| GTAATGGGGA | 1.02 ± 0.015 |
| GTAATTGGGA | 1.022 ± 0.0011 |
| GTAATTGTTA | 1 ± 0.015 |
| GTAATTTTGC | 0.989 ± 0.059 |
| GTACAGGTTT | 1.018 ± 0.0074 |
| GTACCCCAGG | 3.5 ± 3.3 |
| GTACCTTGAT | 1.05 ± 0.015 |
| GTACTATCTC | 0.998 ± 0.046 |
| GTACTCATTT | 1 ± 0.038 |
| GTACTCGAGC | 1 ± 0.018 |
| GTAGAGGGGG | 0.989 ± 0.014 |
| GTAGCAGGGG | 1.3 ± 0.068 |
| GTAGCATGCC | 1.32 ± 0.088 |
| GTAGCGAGAG | 2.11 ± 0.24 |
| GTAGGACGGG | 0.995 ± 0.012 |
| GTAGGCCATG | 1 ± 0.022 |
| GTAGGCGGTG | 0.984 ± 0.029 |
| GTAGGGATGG | 1.03 ± 0.013 |
| GTAGGGGAAG | 1.01 ± 0.017 |
| GTAGGGGGTC | 1.01 ± 0.027 |
| GTAGGTTACT | 1.01 ± 0.019 |
| GTAGGTTATG | 1.007 ± 0.0081 |

| Sequence | switch fluorescence ratio |
| --- | --- |
| GTAGTAAGCG | 0.953 ± 0.045 |
| GTAGTAGATG | 1.013 ± 0.0097 |
| GTAGTAGCGT | 0.969 ± 0.022 |
| GTAGTGGCAG | 0.992 ± 0.049 |
| GTAGTTGATG | 0.9665 ± 0.0026 |
| GTAGTTTATG | 0.996 ± 0.014 |
| GTAGTTTGAG | 0.996 ± 0.015 |
| GTAGTTTTTT | 1.04 ± 0.032 |
| GTATAAAGGC | 1.01 ± 0.047 |
| GTATAACCCG | 0.992 ± 0.026 |
| GTATAAGGTT | 0.98006 ± 0.00074 |
| GTATAATGGG | 0.973 ± 0.019 |
| GTATGAAATC | 1.02 ± 0.036 |
| GTATGAAGAG | 0.995 ± 0.023 |
| GTATGAGTAG | 0.992 ± 0.035 |
| GTATGCGTGC | 1.04 ± 0.017 |
| GTATGCGTTG | 0.989 ± 0.056 |
| GTATGGAGCG | 0.981 ± 0.019 |
| GTATGGCTAG | 0.978 ± 0.029 |
| GTATGGGAAA | 1.04 ± 0.054 |
| GTATGGGGCA | 1 ± 0.029 |
| GTATGGGGCG | 1.01 ± 0.081 |
| GTATGGGGGC | 0.974 ± 0.063 |
| GTATGGGGGT | 0.963 ± 0.024 |
| GTATGGGTGT | 0.9711 ± 0.0078 |
